Test results from paper PMC8704484.

Assays:
[1] = target: RPA (RPA1-RPA2-RPA3 heterotrimer) (human, UniProt P27694;P15927;P35244 1-616;1-270;1-121); assay: smFRET
BLM-core helicase [2] = target: T1, BLM-core helicase (human, UniProt P54132 642-1290); assay: fluorescence anisotropy
DHX36 [3] = target: T2, DHX36 (Bos, UniProt Q05B79 1-1010); assay: smFRET
T2 sequence: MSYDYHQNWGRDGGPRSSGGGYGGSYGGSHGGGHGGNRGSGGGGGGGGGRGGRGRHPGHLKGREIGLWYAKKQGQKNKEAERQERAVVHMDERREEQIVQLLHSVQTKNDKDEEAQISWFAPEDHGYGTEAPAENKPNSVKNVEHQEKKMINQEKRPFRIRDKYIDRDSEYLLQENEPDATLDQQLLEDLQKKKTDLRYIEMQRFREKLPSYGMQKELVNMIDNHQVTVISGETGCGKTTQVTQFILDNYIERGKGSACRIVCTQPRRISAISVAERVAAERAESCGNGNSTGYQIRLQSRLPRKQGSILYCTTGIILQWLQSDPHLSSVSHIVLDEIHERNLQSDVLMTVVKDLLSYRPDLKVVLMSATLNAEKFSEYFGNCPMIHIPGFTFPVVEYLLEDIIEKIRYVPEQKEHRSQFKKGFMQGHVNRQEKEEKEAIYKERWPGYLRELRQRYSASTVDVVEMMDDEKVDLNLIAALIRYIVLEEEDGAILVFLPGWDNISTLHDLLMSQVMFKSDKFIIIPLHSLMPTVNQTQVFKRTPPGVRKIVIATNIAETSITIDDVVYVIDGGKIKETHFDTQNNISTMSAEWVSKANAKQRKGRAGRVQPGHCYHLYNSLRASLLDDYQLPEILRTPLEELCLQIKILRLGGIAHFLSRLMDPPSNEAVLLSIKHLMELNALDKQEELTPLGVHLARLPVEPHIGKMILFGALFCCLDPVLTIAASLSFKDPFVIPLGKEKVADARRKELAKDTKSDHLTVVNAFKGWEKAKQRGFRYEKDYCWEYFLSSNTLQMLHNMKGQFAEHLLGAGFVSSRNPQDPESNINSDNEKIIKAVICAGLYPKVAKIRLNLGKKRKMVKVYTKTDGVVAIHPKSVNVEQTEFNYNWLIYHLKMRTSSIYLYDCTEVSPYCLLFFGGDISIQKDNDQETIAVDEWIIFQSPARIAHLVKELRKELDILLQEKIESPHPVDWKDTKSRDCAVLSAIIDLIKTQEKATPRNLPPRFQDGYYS

Rep helicase [4] = target: T3, Rep helicase (E. coli, UniProt P09980 1-673); assay: smFRET
BLM-core helicase [5] = target: T1, BLM-core helicase; assay: smFRET
RecQ helicase [6] = target: T4, RecQ helicase (E. coli, UniProt P15043 1-609); assay: smFRET
DHX36 [7] = target: T2, DHX36; assay: fluorescence anisotropy
Rep helicase [8] = target: T3, Rep helicase; assay: fluorescence anisotropy
RecQ helicase [9] = target: T4, RecQ helicase; assay: fluorescence anisotropy

T1 sequence (P54132 642-1290): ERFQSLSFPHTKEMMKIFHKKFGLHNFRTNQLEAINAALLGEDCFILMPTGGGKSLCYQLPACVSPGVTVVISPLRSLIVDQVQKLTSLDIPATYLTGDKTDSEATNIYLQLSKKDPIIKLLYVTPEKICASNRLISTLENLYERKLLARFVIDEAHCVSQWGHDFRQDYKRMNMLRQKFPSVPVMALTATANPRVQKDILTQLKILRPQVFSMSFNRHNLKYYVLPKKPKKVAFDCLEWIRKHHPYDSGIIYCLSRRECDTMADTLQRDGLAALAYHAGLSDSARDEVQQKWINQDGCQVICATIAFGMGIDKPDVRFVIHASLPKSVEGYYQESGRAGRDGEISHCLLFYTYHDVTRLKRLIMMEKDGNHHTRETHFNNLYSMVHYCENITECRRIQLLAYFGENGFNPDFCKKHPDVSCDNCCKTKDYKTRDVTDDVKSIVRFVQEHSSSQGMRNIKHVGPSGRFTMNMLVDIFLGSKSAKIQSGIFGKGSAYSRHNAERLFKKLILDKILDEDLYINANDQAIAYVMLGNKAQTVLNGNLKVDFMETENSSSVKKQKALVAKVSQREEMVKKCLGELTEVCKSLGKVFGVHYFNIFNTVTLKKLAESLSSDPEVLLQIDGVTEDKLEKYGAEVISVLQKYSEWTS
T4 sequence (P15043 whole entry): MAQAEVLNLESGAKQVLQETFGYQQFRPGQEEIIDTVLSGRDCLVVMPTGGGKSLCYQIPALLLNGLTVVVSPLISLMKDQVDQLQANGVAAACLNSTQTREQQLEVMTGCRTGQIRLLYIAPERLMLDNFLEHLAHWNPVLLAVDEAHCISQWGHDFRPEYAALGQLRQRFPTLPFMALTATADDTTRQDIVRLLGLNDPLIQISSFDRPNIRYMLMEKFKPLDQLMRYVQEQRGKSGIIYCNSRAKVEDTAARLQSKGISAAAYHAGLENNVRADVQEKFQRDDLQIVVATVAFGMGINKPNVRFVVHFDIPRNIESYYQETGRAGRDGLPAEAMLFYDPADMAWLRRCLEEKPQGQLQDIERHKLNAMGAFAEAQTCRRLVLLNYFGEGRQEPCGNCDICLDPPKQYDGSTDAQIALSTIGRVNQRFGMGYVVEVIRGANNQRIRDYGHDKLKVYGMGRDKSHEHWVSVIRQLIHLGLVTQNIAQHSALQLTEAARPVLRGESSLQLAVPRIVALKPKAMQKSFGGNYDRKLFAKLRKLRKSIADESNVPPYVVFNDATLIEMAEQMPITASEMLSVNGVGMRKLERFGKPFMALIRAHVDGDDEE
T3 sequence (P09980 whole entry): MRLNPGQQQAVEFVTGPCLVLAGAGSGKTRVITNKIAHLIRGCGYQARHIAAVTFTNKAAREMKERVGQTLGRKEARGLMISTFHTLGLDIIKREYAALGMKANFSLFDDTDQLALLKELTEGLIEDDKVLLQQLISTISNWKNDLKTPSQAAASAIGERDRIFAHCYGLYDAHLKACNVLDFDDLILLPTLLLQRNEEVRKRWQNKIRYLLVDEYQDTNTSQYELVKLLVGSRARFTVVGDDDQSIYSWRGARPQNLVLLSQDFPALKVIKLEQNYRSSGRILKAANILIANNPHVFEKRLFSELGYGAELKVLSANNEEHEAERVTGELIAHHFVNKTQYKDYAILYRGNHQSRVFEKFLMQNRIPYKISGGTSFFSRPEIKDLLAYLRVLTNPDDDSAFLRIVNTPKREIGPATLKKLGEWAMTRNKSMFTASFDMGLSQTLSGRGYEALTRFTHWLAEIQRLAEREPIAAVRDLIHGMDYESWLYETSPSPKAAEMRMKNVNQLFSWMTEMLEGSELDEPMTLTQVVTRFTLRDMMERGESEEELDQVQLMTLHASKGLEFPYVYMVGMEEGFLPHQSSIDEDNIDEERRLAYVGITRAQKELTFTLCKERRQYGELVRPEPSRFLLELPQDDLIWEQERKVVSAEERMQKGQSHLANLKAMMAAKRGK
Sequence of RPA (RPA1-RPA2-RPA3 heterotrimer) (P27694 whole entry, chain 1 of 3): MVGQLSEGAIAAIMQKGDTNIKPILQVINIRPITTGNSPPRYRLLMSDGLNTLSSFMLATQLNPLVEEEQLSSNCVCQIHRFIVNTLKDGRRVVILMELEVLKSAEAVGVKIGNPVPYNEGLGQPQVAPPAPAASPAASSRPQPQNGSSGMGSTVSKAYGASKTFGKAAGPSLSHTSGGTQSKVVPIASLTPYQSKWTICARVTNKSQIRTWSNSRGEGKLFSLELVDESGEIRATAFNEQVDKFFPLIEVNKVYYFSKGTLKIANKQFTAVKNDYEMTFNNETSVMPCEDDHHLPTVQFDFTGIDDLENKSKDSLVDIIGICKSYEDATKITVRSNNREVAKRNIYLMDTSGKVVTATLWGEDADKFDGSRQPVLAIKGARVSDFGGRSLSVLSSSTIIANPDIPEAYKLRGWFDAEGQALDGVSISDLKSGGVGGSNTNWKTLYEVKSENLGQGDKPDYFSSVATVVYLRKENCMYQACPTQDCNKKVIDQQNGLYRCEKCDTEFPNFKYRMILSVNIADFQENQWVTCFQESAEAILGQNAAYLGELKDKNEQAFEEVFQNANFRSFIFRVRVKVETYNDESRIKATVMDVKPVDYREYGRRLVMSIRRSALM
Sequence of RPA (RPA1-RPA2-RPA3 heterotrimer) (P15927 whole entry, chain 2 of 3): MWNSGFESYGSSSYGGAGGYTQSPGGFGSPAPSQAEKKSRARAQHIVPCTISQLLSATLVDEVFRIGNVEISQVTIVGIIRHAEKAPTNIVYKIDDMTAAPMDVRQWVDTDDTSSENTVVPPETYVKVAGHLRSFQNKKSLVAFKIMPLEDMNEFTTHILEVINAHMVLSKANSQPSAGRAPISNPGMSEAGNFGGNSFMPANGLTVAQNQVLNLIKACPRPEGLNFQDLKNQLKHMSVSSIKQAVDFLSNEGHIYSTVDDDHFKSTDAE
Sequence of RPA (RPA1-RPA2-RPA3 heterotrimer) (P35244 whole entry, chain 3 of 3): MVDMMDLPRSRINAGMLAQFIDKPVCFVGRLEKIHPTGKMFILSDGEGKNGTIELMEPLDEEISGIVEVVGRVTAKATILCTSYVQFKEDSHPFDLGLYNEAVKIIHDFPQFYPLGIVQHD

B1: d27Bcl2-Mut / Stem (mixed)
DNA 1: GCGTGGCACCGGTAATAGGAAATAGGATTCTCTCTCTCTTCCTCTCTCGCTC
DNA 2: TCCTATTTCCTATTACCGGTGCCACGC
- binding result [1]: binds

B2: F-Bcl2-G4 (structured_DNA)
DNA: GGGCGCGGGAGGAAGGGGGCGGG
- Kd (BLM-core helicase [2]): 97.7 nM

B3: d27Bcl2-IM / Stem (no loading tail) (mixed)
DNA 1: GCGTGGCACCGGTAATAGGAAATAGGATTCCCGCCCCCTTCCTCCCGCGCCCT
DNA 2: TCCTATTTCCTATTACCGGTGCCACGC
- binding result (DHX36 [3]): binds
- binding result (Rep helicase [4]): binds
- binding result (BLM-core helicase [5]): binds
- binding result (RecQ helicase [6]): binds

B4: Duplex (24nt-F/24nt) (dsDNA)
DNA 1: GCCCTGGTGCCGACCAACGAAGGT
DNA 2: ACCTTCGTTGGTCGGCACCAGGGC
- binding result (BLM-core helicase [2]): no binding

B5: F-Bcl2-IM (structured_DNA)
DNA: CCCGCCCCCTTCCTCCCGCGCCC
- Kd (BLM-core helicase [2]): 22 nM
- binding result (DHX36 [7]): binds
- binding result (Rep helicase [8]): binds
- binding result (RecQ helicase [9]): binds
